{"source": "patent US20260265340A1", "about": "(CUROGEN TECHNOLOGY, published 2026)", "binders": {"B1": {"name": "IL-17RA/RC-Fc-TNFR2 fusion protein T1-T4-14 (Fc fusion)", "chain": "LRLLDHRAPVCSQPGLNCTVKNSDCLDDSWIHPRNLTPSSPKDLQIQLHFAHTQQGDLVPVAHIEWTLQTDASILYLEGAELSVLQLDTNERLCVRFEFLSKLRHHHRRWRFTFSHFVVDPGQEYEVTVHHLPKPIPDGDPNHQSKNFLVPDCEHPRMKVTTPCMSSALPWLNVSADGDNVHLVLNVSEEQHFGLSLYWNQVQGPPKPRWHKNLTGPQIITLNHTDLVPCLCIQVWPLEPDSVRTNICPFREDPRAHQNLWQAARLRLLTLQSWLLDAPCSLPAEAALCWRAPGGDPCQPLVPPLSWENVTVDKVLEFPLLKGHPNLCVQVNSSEKLQLQECLWADSLGPLKDDVLLLETRGPQDNRSLCALEPSGCTSLPSKASTRAARLGEYLLQDLQSGQCLQLWDDDLGALWACPMDKYIHKTGIEGRMDRNTGRGGEEKKKEKEKEEQEERETKTPECPSHTQPLGVFLFPPKPKDTLMISRTPEVTCVVVDVSQEDPEVQFNWYVDGVEVHNAKTKPREEQFNSTYRVVSVLTVLHQDWLNGKEYKCKVSNKGLPSSIEKTISKAKGQPREPQVYTLPPSQEEMTKNQVSLTCLVKGFYPSDIAVEWESNGQPENNYKTTPPVLDSDGSFFLYSRLTVDKSRWQEGNVFSCSVMHEALHNHYTQKSLSLSLGKGGGGSGGGGSGGGGSLELPAQVAFTPYAPEPGSTCRLREYYDQTAQMCCAKCPPGQHAKVFCTKTSDTVCDSCEDSTYTQLWNWVPECLSCSSRCSSDQVETQACTREQNRICTCRPGWYCALSKQEGCRLCAPLSKCRPGFGVARPGTETSDVVCKPCAPGTFSNTTSSTDICRPHQICSVVAIPGNASMDAVCTSTSPTRSMAPGAVHLPQPVSTRSQHTQPTPGPSTAPSTSILLPMGPSPPAEGSTGD", "notes": "Structure T1c-Fc-T4g; also called T1c-Fc-T4g; IL-17RA/RC-Fc-TNFR2 (T1-T4-14)"}}, "molecular_target": "T1, human TNFα (human, UniProt P01375 77-233)", "T1 construct": "also called hTNFα", "T1 sequence (P01375 77-233 limits assumed)": "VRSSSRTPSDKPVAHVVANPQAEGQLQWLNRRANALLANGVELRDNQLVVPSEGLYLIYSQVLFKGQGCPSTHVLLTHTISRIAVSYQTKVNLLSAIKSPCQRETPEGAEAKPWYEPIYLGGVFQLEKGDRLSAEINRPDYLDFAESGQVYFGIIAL", "assay": "ELISA, cytokine coated on the plate; the text value differs from the table cell 43.8", "method": "The wells were then blocked with ELISA TBS buffer containing 5% BSA at 100 μl/well and incubated at room temperature for 1 hour, followed by three washes with ELISA TBS buffer (200 μl/well). […] After three washes with ELISA TBS buffer (200 μl/well), HRP-conjugated secondary antibody (Abcam, Cat. Ab98624) was applied and incubated at room temperature for 1 hour.", "data": [{"binder": "B1", "values": [{"measurement": "EC50", "result": 0.0431, "unit": "µg/mL"}]}]}
